We go through five sequences from the supplement of paper PMC5998384.

The subject of series [1] is HeLa Kyoto. The series can be described thus: solubility in G1/S (NP-40 vs SDS abundance) (log2 ratio); higher = more soluble. The settings on record: cell cycle stage: G1/S.
The subject of series [2] is HeLa Kyoto. The series is described as follows: solubility change mitosis vs G1/S (difference of NP-40 vs SDS log2 ratios) (log2 ratio difference); higher = more soluble in mitosis.
The test system of series [3] is HeLa Kyoto. The series can be described thus: melting temperature (median over replicates), in situ; higher = more thermally stable.
Series [4] has as its system HeLa Kyoto. The series is described as follows: thermal stability score vs G1/S (z-score of summed log2 fold changes over temperatures); higher = more thermally stable than in G1/S.
Setting [5] is: cell cycle stage: early G1 (4.5 h after nocodazole release).
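Throughout, for melting temperature (median over replicates), in situ: HeLa Kyoto cells synchronized by double thymidine or nocodazole block, proteins quantified by TMT10plex mass spectrometry, three independent biological replicates.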
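Throughout, for solubility change mitosis vs G1/S (difference of NP-40 vs SDS log2 ratios): synchronized HeLa Kyoto cells (double thymidine block for G1/S, nocodazole release for mitosis), protein amounts in NP-40 versus SDS lysates quantified by mass spectrometry, three biological replicates.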
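Throughout, for solubility in G1/S (NP-40 vs SDS abundance): HeLa Kyoto cells arrested at G1/S by double thymidine block, proteins quantified by TMT10plex mass spectrometry in mild NP-40 versus SDS extracts, three biological replicates.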
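Throughout, for thermal stability score vs G1/S (z-score of summed log2 fold changes over temperatures): synchronized HeLa Kyoto cells, proteins quantified by TMT10plex mass spectrometry, three biological replicates, mitosis taken 0.5 h after nocodazole release, G1/S directly after double thymidine block.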

Regarding “MADPEVCCFITKILCAHGGRMALDALLQEIALSEPQLCEVLQVAGPDRFVVLETGGEAGITRSVVATTRARVCRRKYCQRPCDNLHLCKLNLLGRCNYSQSERNLCKYSHEVLSEENFKVLKNHELSGLNKEELAVLLLQSDPFFMPEICKSYKGEGRQQICNQQPPCSRLHICDHFTRGNCRFPNCLRSHNLMDRKVLAIMREHGLNPDVVQNIQDICNSKHMQKNPPGPRAPSSHRRNMAYRARSKSRDRFFQGSQEFLASASASAERSCTPSPDQISHRASLEDAPVDDLTRKFTYLGSQDRARPPSGSSKATDLGGTSQAGTSQRFLENGSQEDLLHGNPGSTYLASNSTSAPNWKSLTSWTNDQGARRKTVFSPTLPAARSSLGSLQTPEAVTTRKGTGLLSSDYRIINGKSGTQDIQPGPLFNNNADGVATDITSTRSLNYKSTSSGHREISSPRIQDAGPASRDVQATGRIADDADPRVALVNDSLSDVTSTTSSRVDDHDSEEICLDHLCKGCPLNGSCSKVHFHLPYRWQMLIGKTWTDFEHMETIEKGYCNPGIHLCSVGSYTINFRVMSCDSFPIRRLSTPSSVTKPANSVFTTKWIWYWKNESGTWIQYGEEKDKRKNSNVDSSYLESLYQSCPRGVVPFQAGSRNYELSFQGMIQTNIASKTQKDVIRRPTFVPQWYVQQMKRGPDHQPAKTSSVSLTATFRPQEDFCFLSSKKYKLSEIHHLHPEYVRVSEHFKASMKNFKIEKIKKIENSELLDKFTWKKSQMKEEGKLLFYATSRAYVESICSNNFDSFLHETHENKYGKGIYFAKDAIYSHKNCPYDAKNVVMFVAQVLVGKFTEGNITYTSPPPQFDSCVDTRSNPSVFVIFQKDQVYPQYVIEYTEDKACVIS [ZC3HAV1]”, the “solubility in G1/S (log2)” value in the series on HeLa Kyoto [1] was -0.202. For the same sequence, in the series on HeLa Kyoto [2], the “solubility change mitosis (log2)” value is 0.0381. The melting temperature in the series with HeLa Kyoto [3] (cell cycle stage: G1/S) was 48.1 °C; in the series on HeLa Kyoto [3] (cell cycle stage: mitosis), 48.8 °C. The thermal stability score in the series on HeLa Kyoto [4] (setting [5]) was found to be 1.07; in the series with HeLa Kyoto [4] (cell cycle stage: mitosis), 1.97.

Take “MAFPPRRRLRLGPRGLPLLLSGLLLPLCRAFNLDVDSPAEYSGPEGSYFGFAVDFFVPSASSRMFLLVGAPKANTTQPGIVEGGQVLKCDWSSTRRCQPIEFDATGNRDYAKDDPLEFKSHQWFGASVRSKQDKILACAPLYHWRTEMKQEREPVGTCFLQDGTKTVEYAPCRSQDIDADGQGFCQGGFSIDFTKADRVLLGGPGSFYWQGQLISDQVAEIVSKYDPNVYSIKYNNQLATRTAQAIFDDSYLGYSVAVGDFNGDGIDDFVSGVPRAARTLGMVYIYDGKNMSSLYNFTGEQMAAYFGFSVAATDINGDDYADVFIGAPLFMDRGSDGKLQEVGQVSVSLQRASGDFQTTKLNGFEVFARFGSAIAPLGDLDQDGFNDIAIAAPYGGEDKKGIVYIFNGRSTGLNAVPSQILEGQWAARSMPPSFGYSMKGATDIDKNGYPDLIVGAFGVDRAILYRARPVITVNAGLEVYPSILNQDNKTCSLPGTALKVSCFNVRFCLKADGKGVLPRKLNFQVELLLDKLKQKGAIRRALFLYSRSPSHSKNMTISRGGLMQCEELIAYLRDESEFRDKLTPITIFMEYRLDYRTAADTTGLQPILNQFTPANISRQAHILLDCGEDNVCKPKLEVSVDSDQKKIYIGDDNPLTLIVKAQNQGEGAYEAELIVSIPLQADFIGVVRNNEALARLSCAFKTENQTRQVVCDLGNPMKAGTQLLAGLRFSVHQQSEMDTSVKFDLQIQSSNLFDKVSPVVSHKVDLAVLAAVEIRGVSSPDHVFLPIPNWEHKENPETEEDVGPVVQHIYELRNNGPSSFSKAMLHLQWPYKYNNNTLLYILHYDIDGPMNCTSDMEINPLRIKISSLQTTEKNDTVAGQGERDHLITKRDLALSEGDIHTLGCGVAQCLKIVCQVGRLDRGKSAILYVKSLLWTETFMNKENQNHSYSLKSSASFNVIEFPYKNLPIEDITNSTLVTTNVTWGIQPAPMPVPVWVIILAVLAGLLLLAVLVFVMYRMGFFKRVRPPQEEQEREQLQPHENGEGNSET [ITGAV]”: the “solubility in G1/S (log2)” value in the series on HeLa Kyoto [1] was found to be 0.295. In addition, in the series with HeLa Kyoto [2], the “solubility change mitosis (log2)” value is -0.152. The melting temperature in the series with HeLa Kyoto [3] (cell cycle stage: G1/S) came out at 56 °C; with HeLa Kyoto [3] (cell cycle stage: mitosis) it was 54.8 °C. For the same sequence, the thermal stability score in the series on HeLa Kyoto [4] (setting [5]) is -1.75; in the series on HeLa Kyoto [4] (cell cycle stage: mitosis), -1.34.

On to “MADPAAPTPAAPAPAQAPAPAPEAVPAPAAAPVPAPAPASDSASGPSSDSGPEAGSQRLLFSHDLVSGRYRGSVHFGLVRLIHGEDSDSEGEEEGRGSSGCSEAGGAGHEEGRASPLRRGYVRVQWYPEGVKQHVKETKLKLEDRSVVPRDVVRHMRSTDSQCGTVIDVNIDCAVKLIGTNCIIYPVNSKDLQHIWPFMYGDYIAYDCWLGKVYDLKNQIILKLSNGARCSMNTEDGAKLYDVCPHVSDSGLFFDDSYGFYPGQVLIGPAKIFSSVQWLSGVKPVLSTKSKFRVVVEEVQVVELKVTWITKSFCPGGTDSVSPPPSVITQENLGRVKRLGCFDHAQRQLGERCLYVFPAKVEPAKIAWECPEKNCAQGEGSMAKKVKRLLKKQVVRIMSCSPDTQCSRDHSMEDPDKKGESKTKSEAESASPEETPDGSASPVEMQDEGAEEPHEAGEQLPPFLLKEGRDDRLHSAEQDADDEAADDTDDTSSVTSSASSTTSSQSGSGTSRKKSIPLSIKNLKRKHKRKKNKITRDFKPGDRVAVEVVTTMTSADVMWQDGSVECNIRSNDLFPVHHLDNNEFCPGDFVVDKRVQSCPDPAVYGVVQSGDHIGRTCMVKWFKLRPSGDDVELIGEEEDVSVYDIADHPDFRFRTTDIVIRIGNTEDGAPHKEDEPSVGQVARVDVSSKVEVVWADNSKTIILPQHLYNIESEIEESDYDSVEGSTSGASSDEWEDDSDSWETDNGLVEDEHPKIEEPPIPPLEQPVAPEDKGVVISEEAATAAVQGAVAMAAPMAGLMEKAGKDGPPKSFRELKEAIKILESLKNMTVEQLLTGSPTSPTVEPEKPTREKKFLDDIKKLQENLKKTLDNVAIVEEEKMEAVPDVERKEDKPEGQSPVKAEWPSETPVLCQQCGGKPGVTFTSAKGEVFSVLEFAPSNHSFKKIEFQPPEAKKFFSTVRKEMALLATSLPEGIMVKTFEDRMDLFSALIKGPTRTPYEDGLYLFDIQLPNIYPAVPPHFCYLSQCSGRLNPNLYDNGKVCVSLLGTWIGKGTERWTSKSSLLQVLISIQGLILVNEPYYNEAGFDSDRGLQEGYENSRCYNEMALIRVVQSMTQLVRRPPEVFEQEIRQHFSTGGWRLVNRIESWLETHALLEKAQALPNGVPKASSSPEPPAVAELSDSGQQEPEDGGPAPGEASQGSDSEGGAQGLASASRDHTDQTSETAPDASVPPSVKPKKRRKSYRSFLPEKSGYPDIGFPLFPLSKGFIKSIRGVLTQFRAALLEAGMPECTEDK [UBE2O]”, for which the “solubility in G1/S (log2)” value in the series on HeLa Kyoto [1] was -0.0555. Further, the “solubility change mitosis (log2)” value in the series with HeLa Kyoto [2] is -0.0785. In addition, the melting temperature in the series with HeLa Kyoto [3] (cell cycle stage: G1/S) was determined as 51.7 °C; in the series on HeLa Kyoto [3] (cell cycle stage: mitosis) it was 51.1 °C. Further, the thermal stability score in the series on HeLa Kyoto [4] (setting [5]) was -1.41; in the series with HeLa Kyoto [4] (cell cycle stage: mitosis) it was -1.46.

As to “MDGSGPFSCPICLEPLREPVTLPCGHNFCLACLGALWPHRGASGAGGPGGAARCPLCQEPFPDGLQLRKNHTLSELLQLRQGSGPGSGPGPAPALAPEPSAPSALPSVPEPSAPCAPEPWPAGEEPVRCDACPEGAALPAALSCLSCLASFCPAHLGPHERSPALRGHRLVPPLRRLEESLCPRHLRPLERYCRAERVCLCEACAAQEHRGHELVPLEQERALQEAEQSKVLSAVEDRMDELGAGIAQSRRTVALIKSAAVAERERVSRLFADAAAALQGFQTQVLGFIEEGEAAMLGRSQGDLRRQEEQRSRLSRARQNLSQVPEADSVSFLQELLALRLALEDGCGPGPGPPRELSFTKSSQAVRAVRDMLAVACVNQWEQLRGPGGNEDGPQKLDSEADAEPQDLESTNLLESEAPRDYFLKFAYIVDLDSDTADKFLQLFGTKGVKRVLCPINYPLSPTRFTHCEQVLGEGALDRGTYYWEVEIIEGWVSMGVMAEDFSPQEPYDRGRLGRNAHSCCLQWNGRSFSVWFHGLEAPLPHPFSPTVGVCLEYADRALAFYAVRDGKMSLLRRLKASRPRRGGIPASPIDPFQSRLDSHFAGLFTHRLKPAFFLESVDAHLQIGPLKKSCISVLKRR [TRIM47]”, in the series on HeLa Kyoto [1], the “solubility in G1/S (log2)” value stood at 0.0943. The “solubility change mitosis (log2)” value in the series on HeLa Kyoto [2] is -0.052. Further, the melting temperature came to 47.8 °C with HeLa Kyoto [3] (cell cycle stage: G1/S) and 46.7 °C in the series on HeLa Kyoto [3] (cell cycle stage: mitosis). In addition, the thermal stability score was found to be 0.521 in the series with HeLa Kyoto [4] (setting [5]) and 1.84 with HeLa Kyoto [4] (cell cycle stage: mitosis).

For the sequence “MEFPGGNDNYLTITGPSHPFLSGAETFHTPSLGDEEFEIPPISLDSDPSLAVSDVVGHFDDLADPSSSQDGSFSAQYGVQTLDMPVGMTHGLMEQGGGLLSGGLTMDLDHSIGTQYSANPPVTIDVPMTDMTSGLMGHSQLTTIDQSELSSQLGLSLGGGTILPPAQSPEDRLSTTPSPTSSLHEDGVEDFRRQLPSQKTVVVEAGKKQKAPKKRKKKDPNEPQKPVSAYALFFRDTQAAIKGQNPNATFGEVSKIVASMWDSLGEEQKQVYKRKTEAAKKEYLKALAAYKDNQECQATVETVELDPAPPSQTPSPPPMATVDPASPAPASIEPPALSPSIVVNSTLSSYVANQASSGAGGQPNITKLIITKQMLPSSITMSQGGMVTVIPATVVTSRGLQLGQTSTATIQPSQQAQIVTRSVLQAAAAAAAAASMQLPPPRLQPPPLQQMPQPPTQQQVTILQQPPPLQAMQQPPPQKVRINLQQQPPPLQIKSVPLPTLKMQTTLVPPTVESSPERPMNNSPEAHTVEAPSPETICEMITDVVPEVESPSQMDVELVSGSPVALSPQPRCVRSGCENPPIVSKDWDNEYCSNECVVKHCRDVFLAWVASRNSNTVVFVK [TOX4]”, in the series with HeLa Kyoto [1], the “solubility in G1/S (log2)” value is -0.562. Moreover, the “solubility change mitosis (log2)” value in the series on HeLa Kyoto [2] is 0.0879. Also, the values for the melting temperature in the series with HeLa Kyoto [3] (cell cycle stage: G1/S) and with HeLa Kyoto [3] (cell cycle stage: mitosis) were 50.6 °C and 53 °C, respectively. Besides, the thermal stability score in the series on HeLa Kyoto [4] (setting [5]) turned out to be 0.423; in the series with HeLa Kyoto [4] (cell cycle stage: mitosis) it was 0.887.
